Experimental findings from patent publication CN114716554A (dated 2022) are described below.

The target in experiment [1] is T1, LILRB3 Protein, Human, Recombinant (ECD, His Tag), Sino Biological (human, UniProt O75022 24-443).
T1 construct: extracellular domain; Bought recombinant protein with a His tag; also called LILRB3蛋白
The experiment in a line: ELISA, coated protein. A general note: An ELISA detects its analyte on a solid surface through an enzyme-linked reagent.

The target of experiment [2] is T2, LILRB5/CD85c Protein, Human, Recombinant (ECD, His Tag), Sino Biological (human, UniProt O75023 24-458).
T2 construct: extracellular domain; Bought recombinant protein with a His tag; also called LILRB5蛋白
T2 sequence (O75023 24-458): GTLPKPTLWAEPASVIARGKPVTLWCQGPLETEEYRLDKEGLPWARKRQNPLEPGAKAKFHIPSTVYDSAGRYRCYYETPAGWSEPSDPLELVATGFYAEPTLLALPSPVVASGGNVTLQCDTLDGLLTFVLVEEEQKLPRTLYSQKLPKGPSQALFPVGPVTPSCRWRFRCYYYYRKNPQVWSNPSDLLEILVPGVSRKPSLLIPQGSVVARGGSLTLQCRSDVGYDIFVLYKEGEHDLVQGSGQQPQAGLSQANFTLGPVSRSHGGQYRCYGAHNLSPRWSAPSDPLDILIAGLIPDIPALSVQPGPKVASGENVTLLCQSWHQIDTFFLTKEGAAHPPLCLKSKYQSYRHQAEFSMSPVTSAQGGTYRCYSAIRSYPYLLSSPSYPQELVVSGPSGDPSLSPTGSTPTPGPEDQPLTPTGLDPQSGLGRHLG
Nature of the experiment: ELISA, coated protein.

In experiment [3] the target is T3, ILT4 Protein, Human, Recombinant (ECD, His Tag), Sino Biological (human, UniProt Q8N423 22-460).
T3 construct: extracellular domain; Bought recombinant protein with a His tag; also called LILRB2蛋白
T3 sequence (Q8N423 22-460): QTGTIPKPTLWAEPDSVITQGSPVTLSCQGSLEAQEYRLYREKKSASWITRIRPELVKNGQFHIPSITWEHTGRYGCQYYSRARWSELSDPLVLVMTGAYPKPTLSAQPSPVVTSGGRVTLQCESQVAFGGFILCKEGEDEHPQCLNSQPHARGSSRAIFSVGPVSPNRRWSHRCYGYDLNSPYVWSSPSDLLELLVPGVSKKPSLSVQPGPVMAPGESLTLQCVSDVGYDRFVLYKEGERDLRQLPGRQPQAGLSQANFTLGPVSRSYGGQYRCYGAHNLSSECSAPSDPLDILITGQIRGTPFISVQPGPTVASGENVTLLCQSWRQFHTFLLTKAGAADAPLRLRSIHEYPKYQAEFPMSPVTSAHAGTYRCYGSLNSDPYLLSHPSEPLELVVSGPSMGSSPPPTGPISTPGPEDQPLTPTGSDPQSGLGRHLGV
The experiment in a line: ELISA, coated protein.

For experiment [4], the target named is T4, LILRB1 Protein, Human, Recombinant (ECD, His Tag), Sino Biological (human, UniProt Q8NHL6 24-461).
T4 construct: extracellular domain; Bought recombinant protein with a His tag; also called LILRB1蛋白
T4 sequence (Q8NHL6 24-461): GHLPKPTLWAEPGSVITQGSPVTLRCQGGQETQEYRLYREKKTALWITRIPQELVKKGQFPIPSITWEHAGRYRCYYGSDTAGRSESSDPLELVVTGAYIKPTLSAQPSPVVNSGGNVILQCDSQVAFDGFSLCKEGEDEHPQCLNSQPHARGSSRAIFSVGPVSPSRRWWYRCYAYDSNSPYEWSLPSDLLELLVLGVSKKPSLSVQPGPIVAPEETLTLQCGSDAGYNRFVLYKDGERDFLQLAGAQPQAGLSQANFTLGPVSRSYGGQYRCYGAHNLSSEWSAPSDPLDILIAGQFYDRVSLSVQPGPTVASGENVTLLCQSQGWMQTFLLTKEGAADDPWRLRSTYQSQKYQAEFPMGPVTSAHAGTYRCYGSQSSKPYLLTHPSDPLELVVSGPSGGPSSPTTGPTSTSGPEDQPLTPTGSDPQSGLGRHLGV
The experiment in a line: ELISA, coated protein.

The target of experiment [5] is T5, LILRB4 on LILRB4阳性细胞THP-1 (human, UniProt Q8NHJ6 22-448).
T5 construct: whole, on cells; also called LILRB4阳性肿瘤细胞THP-1; 人单核白血病细胞THP-1
Nature of the experiment: flow cytometry on THP-1 cells. In general terms: In flow cytometry, cells or beads pass a laser one at a time.

The target in experiment [6] is T6, Human LILRB4/CD85k/ILT3 Protein (ECD, His Tag), Sino Biological (human, UniProt Q8NHJ6 22-259).
T6 construct: extracellular domain; Bought recombinant protein with a His tag; also called 人LILRB4蛋白; LILRB4蛋白
Nature of the experiment: ELISA, coated LILRB4 ECD-His, antibody titrated.

T1 sequence (O75022 24-443): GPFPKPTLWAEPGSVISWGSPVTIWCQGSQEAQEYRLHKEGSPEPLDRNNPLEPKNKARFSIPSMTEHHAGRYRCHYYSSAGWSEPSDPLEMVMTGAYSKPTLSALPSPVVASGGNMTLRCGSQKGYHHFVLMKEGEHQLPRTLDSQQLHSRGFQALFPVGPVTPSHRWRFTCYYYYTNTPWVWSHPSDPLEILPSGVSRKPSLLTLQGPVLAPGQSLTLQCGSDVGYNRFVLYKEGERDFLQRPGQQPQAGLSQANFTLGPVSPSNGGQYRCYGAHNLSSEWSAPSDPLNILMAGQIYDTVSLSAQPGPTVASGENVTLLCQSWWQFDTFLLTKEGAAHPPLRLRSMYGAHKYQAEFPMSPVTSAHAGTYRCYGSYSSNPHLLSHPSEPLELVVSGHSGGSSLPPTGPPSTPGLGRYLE

B1: 全人源抗体2B9 (antibody, V domains shown)
VH: EVQLVQSGGGLIQPGGSLRLSCAASGFTVSSNYMSWVRQAPGKGLEWVSVIYSGGSTYYADSVKGRFTISRDNSKNTLYLQMNSLRAEDTAVYYCAKGATGGHDAFDIWGQGTTVTVSS
VL: not shown
notes: Fully human antibody from a phage library, made as a whole antibody in CHO-S cells; IgG4 heavy chain constant region, Ig kappa light chain
Take B1: the binding result is “no binding (tested: 10 μg/mL)” in experiment [1]; “no binding (tested: 10 μg/mL)” in experiment [2]; “no binding (tested: 10 μg/mL)” in experiment [3]; “no binding (tested: 10 μg/mL)” in experiment [4]; “binds” in experiment [5]; “binds” in experiment [6].
